Target: ZmHsf17 (Zea mays, UniProt A0A5J6CYG6 1-373)
Assay: EMSA; EMSA/Gel-Shift buffer (Beyotime GS009; composition, salt and pH not stated), 10 uL, 25 C 30 min; 6% native PAGE in 0.5x TBE at 4 C
Conditions: protein: recombinant; tags: 6xHis (stated C-terminal; pET-30a); chain copies: 3; label: biotin; blunt

ZmHsf17, sequence (A0A5J6CYG6 entry or part of it): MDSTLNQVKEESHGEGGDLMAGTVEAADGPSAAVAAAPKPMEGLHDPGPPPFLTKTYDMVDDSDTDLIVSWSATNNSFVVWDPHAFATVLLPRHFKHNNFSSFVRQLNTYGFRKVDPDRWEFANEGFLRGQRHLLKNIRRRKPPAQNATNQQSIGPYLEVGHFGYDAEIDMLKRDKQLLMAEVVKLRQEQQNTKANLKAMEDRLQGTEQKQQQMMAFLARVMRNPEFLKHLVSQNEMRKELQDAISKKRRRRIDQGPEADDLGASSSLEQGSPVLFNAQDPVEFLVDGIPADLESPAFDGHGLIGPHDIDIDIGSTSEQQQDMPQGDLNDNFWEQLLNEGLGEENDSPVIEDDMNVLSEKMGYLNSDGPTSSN

Binder | binding result
ZmPAH1-HSE1-HSE2M2 (dsDNA) DNA 1: TCTTCGAATTGCATAGGAATTTTCGTTCGAACGCATTCTG DNA 2: CAGAATGCGTTCGAACGAAAATTCCTATGCAATTCGAAGA | no binding
ZmPAH1-HSE1 (dsDNA) DNA 1: TCTTCGAATTGCATAGGAAACTTCGTTCGAACGCATTCTG DNA 2: CAGAATGCGTTCGAACGAAGTTTCCTATGCAATTCGAAGA | no binding
ZmPAH1-HSE1-HSE2L16 (dsDNA) DNA 1: CAGCGTCACATGACGGGAATTTTCGTTCGAACGCATTCTG DNA 2: CAGAATGCGTTCGAACGAAAATTCCCGTCATGTGACGCTG | binds
ZmPAH1-HSE1-HSE2R16 (dsDNA) DNA 1: TCTTCGAATTGCATAGGAAACTTCACGTCTTTTCAGCCCT DNA 2: AGGGCTGAAAAGACGTGAAGTTTCCTATGCAATTCGAAGA | binds
ZmPAH1-HSE2 (dsDNA) DNA 1: CAGCGTCACATGACGGGAATTTTCACGTCTTTTCAGCCCT DNA 2: AGGGCTGAAAAGACGTGAAAATTCCCGTCATGTGACGCTG | binds
